According to US20140377215A1 (BOARD OF TRUSTEES OF THE UNIVERSITY OF ARKANSAS, published 2014):

Tests used:
[1] = molecular target: [11PROXYL-(POG)3PCG(POG)4]3; experiment: 1H-15N HSQC NMR titration
[(POG)3PCG(POG)4]3 = 1H-15N HSQC NMR titration

B1: collagen-binding domain (CBD), s3b (Gly893-Lys1008) peptide derived from Clostridium histolyticum cl (other)
chain: GNEKLKEKENNDSSDKATVIPNFNTTMQGSLLGDDSRDYYSFEVKEEGEVNIELDKKDEFGVTWTLHPESNINDRITYGQVDGNKVSNKVKLRPGKYYLLVYKYSGSGNYELRVNK
notes: range 893-1008
B1: binds [1]; binds ([(POG)3PCG(POG)4]3).
